Measured values: IntAct's records for PubMed 9294234

B1: Receptor protein kinase CLAVATA1 (Arabidopsis thaliana (Mouse-ear cress)), Q9SYQ8 (parent)
chain: MAMRLLKTHLLFLHLYLFFSPCFAYTDMEVLLNLKSSMIGPKGHGLHDWIHSSSPDAHCSFSGVSCDDDARVISLNVSFTPLFGTISPEIGMLTHLVNLTLAANNFTGELPLEMKSLTSLKVLNISNNGNLTGTFPGEILKAMVDLEVLDTYNNNFNGKLPPEMSELKKLKYLSFGGNFFSGEIPESYGDIQSLEYLGLNGAGLSGKSPAFLSRLKNLREMYIGYYNSYTGGVPPEFGGLTKLEILDMASCTLTGEIPTSLSNLKHLHTLFLHINNLTGHIPPELSGLVSLKSLDLSINQLTGEIPQSFINLGNITLINLFRNNLYGQIPEAIGELPKLEVFEVWENNFTLQLPANLGRNGNLIKLDVSDNHLTGLIPKDLCRGEKLEMLILSNNFFFGPIPEELGKCKSLTKIRIVKNLLNGTVPAGLFNLPLVTIIELTDNFFSGELPVTMSGDVLDQIYLSNNWFSGEIPPAIGNFPNLQTLFLDRNRFRGNIPREIFELKHLSRINTSANNITGGIPDSISRCSTLISVDLSRNRINGEIPKGINNVKNLGTLNISGNQLTGSIPTGIGNMTSLTTLDLSFNDLSGRVPLGGQFLVFNETSFAGNTYLCLPHRVSCPTRPGQTSDHNHTALFSPSRIVITVIAAITGLILISVAIRQMNKKKNQKSLAWKLTAFQKLDFKSEDVLECLKEENIIGKGGAGIVYRGSMPNNVDVAIKRLVGRGTGRSDHGFTAEIQTLGRIRHRHIVRLLGYVANKDTNLLLYEYMPNGSLGELLHGSKGGHLQWETRHRVAVEAAKGLCYLHHDCSPLILHRDVKSNNILLDSDFEAHVADFGLAKFLVDGAASECMSSIAGSYGYIAPEYAYTLKVDEKSDVYSFGVVLLELIAGKKPVGEFGEGVDIVRWVRNTEEEITQPSDAAIVVAIVDPRLTGYPLTSVIHVFKIAMMCVEEEAAARPTMREVVHMLTNPPKSVANLIAF
partner: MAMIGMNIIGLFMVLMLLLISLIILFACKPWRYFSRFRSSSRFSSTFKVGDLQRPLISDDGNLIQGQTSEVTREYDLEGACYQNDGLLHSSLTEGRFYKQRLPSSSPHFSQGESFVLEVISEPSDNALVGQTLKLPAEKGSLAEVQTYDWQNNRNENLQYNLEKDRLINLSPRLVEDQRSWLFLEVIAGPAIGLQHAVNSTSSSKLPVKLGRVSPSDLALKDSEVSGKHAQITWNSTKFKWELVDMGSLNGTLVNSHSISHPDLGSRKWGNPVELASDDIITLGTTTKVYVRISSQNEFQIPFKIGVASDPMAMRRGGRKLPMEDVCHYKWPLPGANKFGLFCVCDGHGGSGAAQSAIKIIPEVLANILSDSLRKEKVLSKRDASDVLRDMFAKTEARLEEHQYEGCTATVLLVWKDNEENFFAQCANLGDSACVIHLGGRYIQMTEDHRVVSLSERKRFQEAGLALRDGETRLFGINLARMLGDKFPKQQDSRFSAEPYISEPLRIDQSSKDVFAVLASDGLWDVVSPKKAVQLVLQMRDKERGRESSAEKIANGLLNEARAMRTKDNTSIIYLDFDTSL

Variants of: B1
Details: with KAPP

Row | Variant | effect of a mutation on the interaction
1 | G856D | disrupting interaction
2 | K720E | disrupting interaction

Variants of: B1
Details: with KAPP
Remark: another data set of the same source

Row | Variant | effect of a mutation on the interaction
3 | G856D | decreasing interaction
